Results taken from the domain aggregation screens of Martell et al. (2025).

Experiment: soluble fraction after stress (log2 fold change); higher = more stays soluble; pooled small domains, quantitative proteomics
Conditions: stress: 50 degC
Method in brief: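 Pooled custom libraries of small protein domains were each held under stress at 50°C. The read-out, high-throughput quantitative proteomics, tracked how much of each protein stayed soluble. This is reported as a base-two log fold change used to indicate aggregation propensity. Higher values mean more protein remains in solution.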

Question: With “HMGVPTEQEIGKRILAWRKLRGMTLQQLADKAGVGLTTIHNLETGLWYAKMPTYLYIAEALGVSLDALIYG” as the sequence, how does the “soluble fraction (log2)” value read?
Answer: -1.42

Question: With “HMTAYEGLPVTLIIDGRVFQQNLQKMNLSVEWLRLELKKFGVTNLKEVLFASLDTEGKLFYQLKT” as the sequence, how does the “soluble fraction (log2)” value read?
Answer: 0.0485

Question: Which “soluble fraction (log2)” value does the source give for “HMDRLTISTLGNGLFRVNGAEAEATVYNLSGNVVKVVPADEVIDLSSLAKGVYIIHVDGEAFKVI” here?
Answer: -0.86

Question: For “HMIAWNFDTMKESLSEMERVDYQEFIKAFLSLELSISDRTILNQVYQDYMDEDDLSLISDELRV”, which “soluble fraction (log2)” value is on record?
Answer: 0.0819

Question: For “HMLSRNEWLVMEALWERPSTLMELVRQLGQEPPGWAKSTTATMVRRMEEKGLIRHEAGSKARVYHP”, which “soluble fraction (log2)” value is on record?
Answer: -0.885

Question: With “HMKISIDNPSVLLDKLATLFPDTSKNKLRKMLTEGRIYVNDNIEHRAKRELINGDTVKILDKTTSKE” as the sequence, how does the “soluble fraction (log2)” value read?
Answer: 0.0915

Question: For “HMNPNPYIVLGVDKSMPFGEIKKVYQRKRREFHPDSLVAKGLPDELLQKAQDKFIAIQEAYKSIEKNQV”, which “soluble fraction (log2)” value is on record?
Answer: 0.317

Question: Which “soluble fraction (log2)” value does the source give for “HMAMSDFDALSNRISTLSQGRASAVRMKDGIVSLVLDIGGLSAEERKAMTAAIEGEGRGYPSVTQVRILET” here?
Answer: 0.0462

Question: Which “soluble fraction (log2)” value does the source give for “HMRLDHIFSVVERLKGVSLGAGDRLEVQKYEDLLTVYKSKNALSSEEAQTLNDILASLLKMMAKYD” here?
Answer: -0.00461

Question: For “HMKRLPMRKIRDVLRLSADGLSTRKIGVSLTIGRTTVQAYLDRAAEVDLSWPLPPEMSDTDLERLIYPR”, which “soluble fraction (log2)” value is on record?
Answer: -3.39

Question: Which “soluble fraction (log2)” value does the source give for “HMNMAEQGISLDSEAGKARFVSQALPLLKQLPDGVFKQRMLNQLADRVEVTADFIAQQLAQLKAA” here?
Answer: -0.079

Question: Which “soluble fraction (log2)” value does the source give for “HMSSKFKIVGEILSIKKSDILYIIEILSNNEVVKATAVEDEIKDLKIGDKILLSSKAFNPIVNK” here?
Answer: -0.487

Question: For “HMQGTTTELLIQKSALYEELNDPEKALNAMFDAFEMDSLNVNVLHRIVSLLLDKEENEKAILYNQLIIDH”, which “soluble fraction (log2)” value is on record?
Answer: 0.126

Question: Which “soluble fraction (log2)” value does the source give for “HMLMNADVLVKYQEDHWIVISEKASQASDTFDKKEQAVERAKEIAKNKNSSVKVYKQDGTLQDTFDYS” here?
Answer: 0.122

Question: Which “soluble fraction (log2)” value does the source give for “HMAWIAVATKEDYSEYEWKELSPTTDWSTQTFDLGDLAGKTIYAVKMFFDHDTDVKDYKFNLGQLSITSN” here?
Answer: -0.266

Question: Which “soluble fraction (log2)” value does the source give for “HMDPEEQIQSREIWEAVERALDGMQEKGRRVVIALLEGQTQLEVSRAAGISQPLISYYLKSFRTKVRTELG” here?
Answer: -0.48

Question: Which “soluble fraction (log2)” value does the source give for “HMTKSTSMDLGGFMIVEGSETVRLGGQILQKDVDYTIDYFSGKINFISEEALNPGAEISVSYEENQ” here?
Answer: -0.187

Question: For “HMRRLGTTEIAGILRREISQGILIAKERLPSERSLADTYGVARGTVRQALNLLAREGLVQIRRSSGAYVTF”, which “soluble fraction (log2)” value is on record?
Answer: -0.33

Question: Which “soluble fraction (log2)” value does the source give for “HMGNLPPAVINARIKVSPAGRGVFVGFDKGSTSTEAKYADAIRGYLPNIEFNKDDHESVVTVPFNFR” here?
Answer: -0.032

Question: With “HMHPTEKNLTSLLADGSFYMNQNKLETAYDTFTKTIELDPSWAEAWNKRATVLYLMGKYELSQADIDQV” as the sequence, how does the “soluble fraction (log2)” value read?
Answer: -0.0645

Question: Which “soluble fraction (log2)” value does the source give for “HMQESTPGEGYKWREDVLLRVMSQNGIDESLRDEFVRHAVNYDIDDNMYLKKAEIESAAEAWVLENS” here?
Answer: -0.0581

Question: With “HMQIIEVPYSEFLKKLESGQISEVSRDSYQIVFTDRSQPPIIYKTGLMEDPGLVDKMQEAGVTFTSP” as the sequence, how does the “soluble fraction (log2)” value read?
Answer: 0.12

Question: For “HMKQYSFEISKADFKKISENFNFKIINEINDSLIISLNDKNINLDELLIFFVERKIKVRSIENI”, which “soluble fraction (log2)” value is on record?
Answer: -0.986

Question: Which “soluble fraction (log2)” value does the source give for “HMEALTPREREVLTLMGQGRSNAEIATLLSIAPRTAKVHVQNILSKLGATNRTEAVSLAVRQGLIS” here?
Answer: 0.301

Question: With “HMSMLGTEQRVLVLGPARKGEGFLMARTDNNRIVNFEGPLSLVDTMVRVKVTDVYPHSLGGQLL” as the sequence, how does the “soluble fraction (log2)” value read?
Answer: -1.55

Question: With “HMTLRDRDQALEELWGQLADVPMDSETERLLEPFMGWGVGVSRDEIWHWFDRRHSKGIGHLLYS” as the sequence, how does the “soluble fraction (log2)” value read?
Answer: -1.55

Question: Which “soluble fraction (log2)” value does the source give for “HMIINFDAIKLTTELNKYKRHKAIPNTFFDGTYTILDVRELYNDLTPKAQKIADELIEHYNVDVK” here?
Answer: -1.88

Question: For “HMESAVDVFRSILKEKGVTEEEVRQVVAARGKYTLETPIDDYPNEFLYGYVIRYWDQIFDIIQQSREAK”, which “soluble fraction (log2)” value is on record?
Answer: -0.321

Question: Which “soluble fraction (log2)” value does the source give for “HMNHLSYEQRLKIKEMLDGGFKKIDIARALGVHNATIYREIERGSVNGIYNPNKSEEQYRDHLSEK” here?
Answer: 0.255

Question: Which “soluble fraction (log2)” value does the source give for “HMATARPPPPPESRVEVLFDGRWYAGTVVGGALDEHRATVFFDADRLSQVINFAETGIRVLGT” here?
Answer: -0.0673

Question: With “HMAVLGIQPVFHRSTGQTVYKSSVNTAKGRVYLGLFPTLTEALEIKLKYMQEHGHTKGITNLTNKLKEL” as the sequence, how does the “soluble fraction (log2)” value read?
Answer: -1.17

Question: For “HMGGPTARQMEVLSLIAQGLPNKRIADELGIAERTVKLHITALLDSLGARNRTHLLVVARERGM”, which “soluble fraction (log2)” value is on record?
Answer: -2.21

Question: With “HMKEQYTELDWDKVQVNDKVMIKDLNQQVTILSLPDKNNALYIQMGMIKTKVKKEKLAVYNPQLA” as the sequence, how does the “soluble fraction (log2)” value read?
Answer: -0.185

Question: With “HMTINQIDPASGRKVGYWIITGEMKPKEGFSPDNKIEEGIYVNSRKSGKWIKYWPNGNVRSEIIYKNGR” as the sequence, how does the “soluble fraction (log2)” value read?
Answer: -0.549

Question: For “HMNVAVSEADAKAAALERVSGATEADIRMELELDDGYYVYEGDIIYQQKEYEFEIDAQTGKFLKWSEER”, which “soluble fraction (log2)” value is on record?
Answer: -0.14

Question: With “HMELTKAELEVMQILWKLKKAFVGDILDRMVEPKPAYNTVSTVVRLLEKKGVVGHESFGKSHRYYPL” as the sequence, how does the “soluble fraction (log2)” value read?
Answer: -3.22

Question: Which “soluble fraction (log2)” value does the source give for “HMDIDNDIIENILVMGVTKAIAINLSNEFERHRIIANIEYAKEKSKNSEIKNISAFTVEAIRQDYANS” here?
Answer: -1.1

Question: For “HMESRLQAAIALRKAGEHEQSREALKILADEPALRAQALLNIAWSFDNQGHERDAEGYYLAAIE”, which “soluble fraction (log2)” value is on record?
Answer: -0.131

Question: With “HMTPDGNATVWSANGYGVRLRTGPGKGYAIIGVYSVGTTVKVLERGPAGGWDHIQVGSRVGYMMNEFLHYY” as the sequence, how does the “soluble fraction (log2)” value read?
Answer: -1.69

Question: Which “soluble fraction (log2)” value does the source give for “HMEFTFTLPRGYIDDTGMIHREGTMRLANAADEILPLKDPRVQQNPGYLTIILLARVITKLGSL” here?
Answer: 0.277

Question: Which “soluble fraction (log2)” value does the source give for “HMENFKVFMKAVQEVSPVPVRFDEISSGAKGYYSNTEKEIVIQNGMSESQTMKTGIHEVTHAMLHDRDF” here?
Answer: 0.113

Question: Which “soluble fraction (log2)” value does the source give for “HMELRSPMPGLIIEIPVSKGDIIKKDQSLIILEAMKMENVLTSPINGKIADIKVNVQDTVEKNNLLITFEN” here?
Answer: -0.164

Question: For “HMAPKVTLNETETAIFEKMQQEKQLLLSELRTHFDISNKLWDTSIKTLTKNQLLTVSKEADLLWIKL”, which “soluble fraction (log2)” value is on record?
Answer: -0.658

Question: With “HMQKFINQEHEKAYNLMLEKDYQQALKIFDDLIYLFPNEANLLSDRGVIFIHLNKKEAALQDFDQAVF” as the sequence, how does the “soluble fraction (log2)” value read?
Answer: -2

Question: Which “soluble fraction (log2)” value does the source give for “HMNTPTLLLYGGKDHSVPEAGIRHLRAHLSANDRGEYRFYPNAPHLLLQSRQWQQVSQDISQWLAMT” here?
Answer: 0.141

Question: For “HMQGAARGMLFAQAQRWMTKFRIDPQQADRITQAALDPAQTDAILREVRRGYGPSAERALRGIIRRARRA”, which “soluble fraction (log2)” value is on record?
Answer: -0.968

Question: Which “soluble fraction (log2)” value does the source give for “HMQSREISYSDFVASVERGEVATVILDGENIRFKGGDNVEYVTVRPADTNVTDLLIENQVVVRAEK” here?
Answer: 0.155

Question: Which “soluble fraction (log2)” value does the source give for “HMGLNELQVKLNEAMQRLSLKHRTVVVMHDIEGIPHDEIAKIVGVSVGTIRSRLFYARRQLQADLGEY” here?
Answer: -2.57

Question: With “HMDIESREAWVDASGMGVRLDRWLTQLAPEFSRNHLQSLIERGAVRVDGQPALVASRKLRIGQQVAVSLIP” as the sequence, how does the “soluble fraction (log2)” value read?
Answer: -0.868

Question: For “HMIKIDESTLSEDELKIFEILKIEDKNIENIAIESKILPGKLLATLMNMEMKKIVVQYPGKVFGLNRKLK”, which “soluble fraction (log2)” value is on record?
Answer: -0.492

Question: For “HMTSDADSLRDKTGYVAEQVTSKGGKVNLYDGGFDSLYSARSTGETISTGTEIRVVDPGGGNMLVVEPV”, which “soluble fraction (log2)” value is on record?
Answer: 0.367

Question: Which “soluble fraction (log2)” value does the source give for “HMGMTDEELNREEERVVAELEAKDEEELTIYNEEDLTFEETLDLPEGSLMRDRENGMIYLKVLDIWMPY” here?
Answer: -0.54

Question: With “HMLPDLQKAIDTFLYEVDSRINTSFEELIDKLNSKEEAVAFFLALLEAVRWGFIKAEQESNSINIKK” as the sequence, how does the “soluble fraction (log2)” value read?
Answer: -0.565

Question: Which “soluble fraction (log2)” value does the source give for “HMDSTTHALALVRTLPRDQAEAVLLRVVADLDYADVAEIMGRSPGAVRVLVHRGLRRLEQELATRRT” here?
Answer: -0.465

Question: Which “soluble fraction (log2)” value does the source give for “HMSELIDSLTEAVRSAPDAVPLRLHLAELLLADGQRDRAFAQLGQVLAKDPQNARALEMLGVGS” here?
Answer: -0.0386
